Measured values from patent US20030088057.

Legend:
[1] = tested on: AKRASEA
[2] = tested on: RKKKSAA
[3] = tested on: ARKASAA
[4] = tested on: ARRASAA
[5] = tested on: KKRKSAA
[6] = tested on: AKRESAA
[7] = tested on: EKRASAA
[8] = tested on: AKRPSAA
[9] = tested on: AAAASKR
[10] = tested on: AKRASAA
[11] = tested on: PKRASAA
[12] = target: rat prolactin (UniProt P01237)
[13] = tested on: rac1
[14] = tested on: cdc42
[15] = target: histone 4 (UniProt P62803)
[16] = tested on: AKRASPA
[17] = tested on: ARAASVA
[18] = target: myelin basic protein (UniProt P02687)
[19] = tested on: AKRGSAA
[20] = tested on: histone 1
[21] = tested on: AKRKSAA
[22] = tested on: protamine
[23] = tested on: AKRASGA
[24] = tested on: KKRASAA
[25] = tested on: AARASAA
[26] = tested on: AKAASAA
[27] = tested on: casein
[28] = target: histone 2B (UniProt P62808)
[29] = tested on: ARRASVA
[30] = tested on: AAKRSAA
[31] = tested on: KKAASAA
[32] = tested on: AAKKSAA

myelin basic protein, sequence (P02687 whole entry): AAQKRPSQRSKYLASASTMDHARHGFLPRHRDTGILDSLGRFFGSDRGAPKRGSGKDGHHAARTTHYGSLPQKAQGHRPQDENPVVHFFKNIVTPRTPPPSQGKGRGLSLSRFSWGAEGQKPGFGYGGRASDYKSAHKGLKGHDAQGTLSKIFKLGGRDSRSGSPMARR
rat prolactin, sequence (P01237 30-226): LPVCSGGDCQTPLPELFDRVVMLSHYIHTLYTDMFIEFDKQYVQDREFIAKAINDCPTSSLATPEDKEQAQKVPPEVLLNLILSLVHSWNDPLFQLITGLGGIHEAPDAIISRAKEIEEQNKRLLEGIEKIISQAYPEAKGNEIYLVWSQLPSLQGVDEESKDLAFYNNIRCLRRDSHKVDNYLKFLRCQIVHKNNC

“Protein kinase C purified from bovine brain” was tested, and the 32P incorporated [1] was 0.2 pmol/unit, the 32P incorporated, % (AKRASAA = 100) [1] was 6% and the 32P incorporated [2] was 3.1 pmol/unit. The 32P incorporated, % (AKRASAA = 100) [2] was 94%, the 32P incorporated [3] was 5.7 pmol/unit and the 32P incorporated, % (AKRASAA = 100) [3] was 173%. For the same substance, the 32P incorporated [4] was 18.8 pmol/unit, the 32P incorporated, % (AKRASAA = 100) [4] was 570% and the 32P incorporated [5] was 11.1 pmol/unit. For the same substance, the 32P incorporated, % (AKRASAA = 100) [5] was 370%, the 32P incorporated [6] was 0.4 pmol/unit and the 32P incorporated, % (AKRASAA = 100) [6] was 12%. It also gave a 32P incorporated [7] of 0.1 pmol/unit, a 32P incorporated, % (AKRASAA = 100) [7] of 3% and a 32P incorporated [8] of 3.9 pmol/unit. It also gave a 32P incorporated, % (AKRASAA = 100) [8] of 118%, a 32P incorporated [9] of 13.3 pmol/unit and a 32P incorporated, % (AKRASAA = 100) [9] of 403%. It also gave a 32P incorporated [10] of 3 pmol/unit, a 32P incorporated, % (AKRASAA = 100) [10] of 100% and a 32P incorporated [11] of 8.7 pmol/unit. It also gave a 32P incorporated, % (AKRASAA = 100) [11] of 264%.
“active γ-PAK (mode of activation not stated for this experiment)” showed a 32P incorporated [12] of 1.8 pmol, a rel rate (%) (histone 2B = 100) [12] of 17% and a 32P incorporated [1] of 18.3 pmol/unit. The 32P incorporated, % (AKRASAA = 100) [1] was 68%, the Km [1] was 1420 µM and the “Km relative to AKRASAA” value [1] was “Glutamate in the -1 or +1 position increased the Km by ˜3-fold”. For the same substance, the Vmax [1] was 2.22 pmol/min, the “Vmax relative to AKRASAA” value [1] was >2-fold increase in the Vmax when glutamate was in the -4 or +1 position and the Vmax/Km (pmol min^-1 mM^-1) [1] was 1.6. The “Vmax/Km relative to AKRASAA” value [1] was 0.7-fold when glutamate was in the +1 position of AKRASEA, the 32P incorporated [2] was 0.1 pmol/unit and the 32P incorporated, % (AKRASAA = 100) [2] was 0%. For the same substance, the 32P incorporated [3] was 0.9 pmol/unit, the 32P incorporated, % (AKRASAA = 100) [3] was 3% and the Km [3] was greater than 5000 µM. The substrate or not [13] was “Proteins that are not substrates for γ-PAK, such as casein, histone 1, cdc42, and rac1 (data not shown)”, the substrate or not [14] was “Proteins that are not substrates for γ-PAK, such as casein, histone 1, cdc42, and rac1 (data not shown)” and the 32P incorporated [4] was 25 pmol/unit. For the same substance, the 32P incorporated, % (AKRASAA = 100) [4] was 93%, the Km [4] was 650 µM and the Vmax [4] was 2.11 pmol/min. The Vmax/Km (pmol min^-1 mM^-1) [4] was 3.2, the 32P incorporated [15] was 8.3 pmol and the rel rate (%) (histone 2B = 100) [15] was 74%. The Km [16] was greater than 5000 µM, the “rate of phosphorylation relative to ARRASVA” value [17] was “phosphorylated at a slower rate (40%) compared to ARRASVA (SEQ ID NO:17) (100%)” and the 32P incorporated [18] was 4.2 pmol. The rel rate (%) (histone 2B = 100) [18] was 37%, the Km [19] was 3520 µM and the “Km relative to AKRASAA” value [19] was “increased the Km by 7-fold over that of the peptide containing alanine at that position”. The Vmax [19] was 6.44 pmol/min, the “Vmax relative to AKRASAA” value [19] was “the Vmax was increased by 6-fold” and the Vmax/Km (pmol min^-1 mM^-1) [19] was 1.8. The 32P incorporated [5] was 19.2 pmol/unit, the 32P incorporated, % (AKRASAA = 100) [5] was 72% and the Km [5] was 610 µM. It also gave a Vmax [5] of 1.84 pmol/min, a Vmax/Km (pmol min^-1 mM^-1) [5] of 3 and a 32P incorporated [20] of 0 pmol. The rel rate (%) (histone 2B = 100) [20] was 0%, the Km [21] was 480 µM and the Vmax [21] was 2.34 pmol/min. The Vmax/Km (pmol min^-1 mM^-1) [21] was 4.8, the “Vmax/Km relative to AKRASAA” value [21] was “˜2 fold higher than that of AKRASAA” and the 32P incorporated [22] was 0 pmol. For the same substance, the rel rate (%) (histone 2B = 100) [22] was 0%, the Km [23] was 2090 µM and the “Km relative to AKRASAA” value [23] was “increased the Km by 4-fold and the Vmax by 3-fold”. For the same substance, the Vmax [23] was 3.49 pmol/min, the “Vmax relative to AKRASAA” value [23] was “increased the Km by 4-fold and the Vmax by 3-fold” and the Vmax/Km (pmol min^-1 mM^-1) [23] was 1.7. It also gave a 32P incorporated [6] of 47.2 pmol/unit, a 32P incorporated, % (AKRASAA = 100) [6] of 176% and a Km [6] of 1350 µM. The “Km relative to AKRASAA” value [6] was “Glutamate in the -1 or +1 position increased the Km by ˜3-fold”, the Vmax [6] was 6.62 pmol/min and the “Vmax relative to AKRASAA” value [6] was 6-fold higher than with AKRASAA. For the same substance, the Vmax/Km (pmol min^-1 mM^-1) [6] was 4.9, the “Vmax/Km relative to AKRASAA” value [6] was “an increase in the overall rate (Vmax/Km) of ˜2.2-fold” and the 32P incorporated [7] was 30.2 pmol/unit. The 32P incorporated, % (AKRASAA = 100) [7] was 113%, the Km [7] was 890 µM and the “Km relative to AKRASAA” value [7] was “the Km was increased by 2-fold when glutamate was in the -4 position”. The Vmax [7] was 2.48 pmol/min, the “Vmax relative to AKRASAA” value [7] was >2-fold increase in the Vmax when glutamate was in the -4 or +1 position and the Vmax/Km (pmol min^-1 mM^-1) [7] was 2.8. The “Vmax/Km relative to AKRASAA” value [7] was 1.3-fold with glutamate in the -4 position, the Km [24] was 370 µM and the Vmax [24] was 1.59 pmol/min. The Vmax/Km (pmol min^-1 mM^-1) [24] was 4.3, the “Vmax/Km relative to AKRASAA” value [24] was “˜2 fold higher than that of AKRASAA” and the Km [25] was 1880 µM. For the same substance, the Vmax [25] was 2.27 pmol/min, the Vmax/Km (pmol min^-1 mM^-1) [25] was 1.2 and the 32P incorporated [8] was 1.2 pmol/unit. It also gave a 32P incorporated, % (AKRASAA = 100) [8] of 5%, a Km [8] greater than 5000 µM and a Km [26] greater than 5000 µM. It also gave a 32P incorporated [9] of 0 pmol/unit, a 32P incorporated, % (AKRASAA = 100) [9] of 0% and a 32P incorporated [10] of 26.8 pmol/unit. For the same substance, the 32P incorporated, % (AKRASAA = 100) [10] was 100%, the Km [10] was 460 µM and the Vmax/Km (pmol min^-1 mM^-1) [10] was 2.2. The substrate or not [27] was “Proteins that are not substrates for γ-PAK, such as casein, histone 1, cdc42, and rac1 (data not shown)”, the 32P incorporated [11] was 40.5 pmol/unit and the 32P incorporated, % (AKRASAA = 100) [11] was 151%. The Km [11] was 240 µM, the “Km relative to AKRASAA” value [11] was “decreased the Km by ≈2-fold as compared to AKRASAA” and the Vmax [11] was 1.1 pmol/min. The Vmax/Km (pmol min^-1 mM^-1) [11] was 4.6, the “phosphorylation rate (Vmax/Km) relative to AKRASAA” value [11] was “an overall effect of a 2-fold increase in the phosphorylation rate” and the 32P incorporated [28] was 11 pmol. For the same substance, the rel rate (%) (histone 2B = 100) [28] was 100% and the “rate of phosphorylation (reference)” value [29] was “ARRASVA (SEQ ID NO:17) (100%)”.
For “γ-PAK activated by limited digestion with trypsin”, the 32P incorporated, proteolytically activated (pmol min^-1 µg^-1) [1] was 326, the “rate of phosphorylation relative to AKRASAA” value [1] was “a glutamate residue in the +1 position decreased the rate to 71%” and the rel rate (%), proteolytically activated (KKRKSAA = 100) [1] was 108%. For the same substance, the 32P incorporated, proteolytically activated (pmol min^-1 µg^-1) [2] was 0, the rel rate (%), proteolytically activated (KKRKSAA = 100) [2] was 0% and the 32P incorporated, proteolytically activated (pmol min^-1 µg^-1) [3] was 16. The rel rate (%), proteolytically activated (KKRKSAA = 100) [3] was 6%, the 32P incorporated, proteolytically activated (pmol min^-1 µg^-1) [4] was 391 and the rel rate (%), proteolytically activated (KKRKSAA = 100) [4] was 129%. It also gave a 32P incorporated, proteolytically activated (pmol min^-1 µg^-1) [16] of 0, a rel rate (%), proteolytically activated (KKRKSAA = 100) [16] of 0% and a 32P incorporated, proteolytically activated (pmol min^-1 µg^-1) [19] of 381. For the same substance, the rel rate (%), proteolytically activated (KKRKSAA = 100) [19] was 126%, the 32P incorporated, proteolytically activated (pmol min^-1 µg^-1) [5] was 302 and the rel rate (%), proteolytically activated (KKRKSAA = 100) [5] was 100%. The 32P incorporated, proteolytically activated (pmol min^-1 µg^-1) [21] was 548, the rel rate (%), proteolytically activated (KKRKSAA = 100) [21] was 181% and the 32P incorporated, proteolytically activated (pmol min^-1 µg^-1) [30] was 0. For the same substance, the rel rate (%), proteolytically activated (KKRKSAA = 100) [30] was 0%, the 32P incorporated, proteolytically activated (pmol min^-1 µg^-1) [23] was 324 and the rel rate (%), proteolytically activated (KKRKSAA = 100) [23] was 107%. The 32P incorporated, proteolytically activated (pmol min^-1 µg^-1) [6] was 750, the “rate of phosphorylation relative to AKRASAA” value [6] was “increased the rate of phosphorylation relative to AKRASAA (SEQ ID NO:6) to 175 and 113%, respectively” and the rel rate (%), proteolytically activated (KKRKSAA = 100) [6] was 247%. The 32P incorporated, proteolytically activated (pmol min^-1 µg^-1) [7] was 484, the “rate of phosphorylation relative to AKRASAA” value [7] was “increased the rate of phosphorylation relative to AKRASAA (SEQ ID NO:6) to 175 and 113%, respectively” and the rel rate (%), proteolytically activated (KKRKSAA = 100) [7] was 160%. The 32P incorporated, proteolytically activated (pmol min^-1 µg^-1) [24] was 586, the rel rate (%), proteolytically activated (KKRKSAA = 100) [24] was 193% and the 32P incorporated, proteolytically activated (pmol min^-1 µg^-1) [25] was 169. The “rate of phosphorylation relative to AKRASAA” value [25] was “significantly slower rate (40 and 56%) as compared to AKRASAA (SEQ ID NO:6) and KKRKSAA (SEQ ID NO:8), respectively”, the rel rate (%), proteolytically activated (KKRKSAA = 100) [25] was 56% and the 32P incorporated, proteolytically activated (pmol min^-1 µg^-1) [8] was 16. For the same substance, the rel rate (%), proteolytically activated (KKRKSAA = 100) [8] was 6%, the 32P incorporated, proteolytically activated (pmol min^-1 µg^-1) [31] was 0 and the rel rate (%), proteolytically activated (KKRKSAA = 100) [31] was 0%. It also gave a 32P incorporated, proteolytically activated (pmol min^-1 µg^-1) [26] of 5, a rel rate (%), proteolytically activated (KKRKSAA = 100) [26] of 2% and a 32P incorporated, proteolytically activated (pmol min^-1 µg^-1) [9] of 0. The rel rate (%), proteolytically activated (KKRKSAA = 100) [9] was 0%, the 32P incorporated, proteolytically activated (pmol min^-1 µg^-1) [10] was 426 and the rel rate (%), proteolytically activated (KKRKSAA = 100) [10] was 141%. The 32P incorporated, proteolytically activated (pmol min^-1 µg^-1) [11] was 636, the rel rate (%), proteolytically activated (KKRKSAA = 100) [11] was 209% and the 32P incorporated, proteolytically activated (pmol min^-1 µg^-1) [32] was 0. The rel rate (%), proteolytically activated (KKRKSAA = 100) [32] was 0%.
